Assay results published in patent US20240294914A1, “COMPOSITIONS AND METHODS FOR TREATING HEPATITIS B VIRUS INFECTION” (priority 2021, published 2024).
Strand notation (5' to 3'): a small letter for the sugar, then the base; units joined by * are phosphorothioate-linked, units joined directly phosphodiester-linked; [ ] holds rarer units or linkages, { } end groups; capitals alone tell only the bases. m = 2'-O-methyl; r = 2'-OH (RNA)

B1: cas12b-17: guide RNA SEQ ID NO: 382 (nucleic acid)
guide: mG*mU*mU*rCrUrGrUrCrUrUrUrUrGrGrUrCrArGrGrArCrArArCrCrGrUrCrUrArGrCrUrArUrArArGrUrGrCrUrGrCrArGrGrGrUrGrUrGrArGrArArArCrUrCrCrUrArUrUrGrCrUrGrGrArCrGrArUrGrUrCrUrCrUrUrArCrGrArGrGrCrArUrUrArGrCrArCrGrGrGrGrCrCrArArGrUrCrUrGrUrArCrArGrCrA
B2: cas12b-30: guide RNA SEQ ID NO: 383 (nucleic acid)
guide: mG*mU*mU*rCrUrGrUrCrUrUrUrUrGrGrUrCrArGrGrArCrArArCrCrGrUrCrUrArGrCrUrArUrArArGrUrGrCrUrGrCrArGrGrGrUrGrUrGrArGrArArArCrUrCrCrUrArUrUrGrCrUrGrGrArCrGrArUrGrUrCrUrCrUrUrArCrGrArGrGrCrArUrUrArGrCrArCrGrCrUrGrArCrGrCrArArCrCrCrCrCrArCrUrGrG
B3: cas12b-42: guide RNA SEQ ID NO: 384 (nucleic acid)
guide: mG*mU*mU*rCrUrGrUrCrUrUrUrUrGrGrUrCrArGrGrArCrArArCrCrGrUrCrUrArGrCrUrArUrArArGrUrGrCrUrGrCrArGrGrGrUrGrUrGrArGrArArArCrUrCrCrUrArUrUrGrCrUrGrGrArCrGrArUrGrUrCrUrCrUrUrArCrGrArGrGrCrArUrUrArGrCrArCrGrGrArGrCrUrArCrUrGrUrGrGrArGrUrUrArCrU
B4: cas12b-100: guide RNA SEQ ID NO: 385 (nucleic acid)
guide: mG*mU*mU*rCrUrGrUrCrUrUrUrUrGrGrUrCrArGrGrArCrArArCrCrGrUrCrUrArGrCrUrArUrArArGrUrGrCrUrGrCrArGrGrGrUrGrUrGrArGrArArArCrUrCrCrUrArUrUrGrCrUrGrGrArCrGrArUrGrUrCrUrCrUrUrArCrGrArGrGrCrArUrUrArGrCrArCrUrUrCrUrUrCrUrArGrGrGrGrArCrCrUrGrCrCrU
B5: cas12b-147: guide RNA SEQ ID NO: 386 (nucleic acid)
guide: mG*mU*mU*rCrUrGrUrCrUrUrUrUrGrGrUrCrArGrGrArCrArArCrCrGrUrCrUrArGrCrUrArUrArArGrUrGrCrUrGrCrArGrGrGrUrGrUrGrArGrArArArCrUrCrCrUrArUrUrGrCrUrGrGrArCrGrArUrGrUrCrUrCrUrUrArCrGrArGrGrCrArUrUrArGrCrArCrGrArGrGrArCrArArArCrGrGrGrCrArArCrArUrA
B6: cas12b-154: guide RNA SEQ ID NO: 387 (nucleic acid)
guide: mG*mU*mU*rCrUrGrUrCrUrUrUrUrGrGrUrCrArGrGrArCrArArCrCrGrUrCrUrArGrCrUrArUrArArGrUrGrCrUrGrCrArGrGrGrUrGrUrGrArGrArArArCrUrCrCrUrArUrUrGrCrUrGrGrArCrGrArUrGrUrCrUrCrUrUrArCrGrArGrGrCrArUrUrArGrCrArCrUrUrGrUrCrArArCrArArGrArArArArArCrCrCrC
B7: cas12b-35: guide RNA SEQ ID NO: 388 (nucleic acid)
guide: mG*mU*mU*rCrUrGrUrCrUrUrUrUrGrGrUrCrArGrGrArCrArArCrCrGrUrCrUrArGrCrUrArUrArArGrUrGrCrUrGrCrArGrGrGrUrGrUrGrArGrArArArCrUrCrCrUrArUrUrGrCrUrGrGrArCrGrArUrGrUrCrUrCrUrUrArCrGrArGrGrCrArUrUrArGrCrArCrCrCrCrArArGrGrUrCrUrUrArCrArUrArArGrArG
B8: cas12b-124: guide RNA SEQ ID NO: 389 (nucleic acid)
guide: mG*mU*mU*rCrUrGrUrCrUrUrUrUrGrGrUrCrArGrGrArCrArArCrCrGrUrCrUrArGrCrUrArUrArArGrUrGrCrUrGrCrArGrGrGrUrGrUrGrArGrArArArCrUrCrCrUrArUrUrGrCrUrGrGrArCrGrArUrGrUrCrUrCrUrUrArCrGrArGrGrCrArUrUrArGrCrArCrCrCrGrGrGrCrArArCrGrGrGrGrUrArArArGrGrU
B9: cas12b-127: guide RNA SEQ ID NO: 390 (nucleic acid)
guide: mG*mU*mU*rCrUrGrUrCrUrUrUrUrGrGrUrCrArGrGrArCrArArCrCrGrUrCrUrArGrCrUrArUrArArGrUrGrCrUrGrCrArGrGrGrUrGrUrGrArGrArArArCrUrCrCrUrArUrUrGrCrUrGrGrArCrGrArUrGrUrCrUrCrUrUrArCrGrArGrGrCrArUrUrArGrCrArCrArCrArCrArGrArArArGrGrCrCrUrUrGrUrArArG
B10: cas12b-122b: guide RNA SEQ ID NO: 391 (nucleic acid)
guide: GTTCTGTCTTTTGGTCAGGACAACCGTCTAGCTATAAGTGCTGCAGGGTGTGAGAAACTCCTATTGCTGGACGATGTCTCTTACGAGGCATTAGCACCACGCACGCGCTGATGGCCC
modifications: sugars from the 5' end m3 r114, linkages s3 o113 (s phosphorothioate, o phosphodiester), T or U not given here
B11: cas12b-4: guide RNA SEQ ID NO: 379 (nucleic acid)
guide: mG*mU*mU*rCrUrGrUrCrUrUrUrUrGrGrUrCrArGrGrArCrArArCrCrGrUrCrUrArGrCrUrArUrArArGrUrGrCrUrGrCrArGrGrGrUrGrUrGrArGrArArArCrUrCrCrUrArUrUrGrCrUrGrGrArCrGrArUrGrUrCrUrCrUrUrArCrGrArGrGrCrArUrUrArGrCrArCrArCrArArGrArArUrCrCrUrCrArCrArArUrArCrC
B12: G-553: guide RNA SEQ ID NO: 5506 (nucleic acid)
guide: GGGCAACGGGGUAAAGGUUCGUUUUAGAGCUAGAAAUAGCAAGUUAAAAUAAGGCUAGUCCGUUAUCAACUUGAAAAAGUGGCACCGAGUCGGUGCUUUU
modifications: sugars from the 5' end m3 r93 m3 r1, linkages s3 o93 s3 (s phosphorothioate, o phosphodiester), T or U not given here
B13: G-200: guide RNA SEQ ID NO: 5498 (nucleic acid)
guide: GUGAAAAAGUUGCAUGGUGCGUUUUAGAGCUAGAAAUAGCAAGUUAAAAUAAGGCUAGUCCGUUAUCAACUUGAAAAAGUGGCACCGAGUCGGUGCUUUU
modifications: sugars from the 5' end m3 r93 m3 r1, linkages s3 o93 s3 (s phosphorothioate, o phosphodiester), T or U not given here
B14: G-251: guide RNA SEQ ID NO: 5504 (nucleic acid)
guide: CAGGUAUUGUUUACACAGAAGUUUUAGAGCUAGAAAUAGCAAGUUAAAAUAAGGCUAGUCCGUUAUCAACUUGAAAAAGUGGCACCGAGUCGGUGCUUUU
modifications: sugars from the 5' end m3 r93 m3 r1, linkages s3 o93 s3 (s phosphorothioate, o phosphodiester), T or U not given here
B15: G-159: guide RNA SEQ ID NO: 5488 (nucleic acid)
guide: GCAAACACUUGGCACAGACCGUUUUAGAGCUAGAAAUAGCAAGUUAAAAUAAGGCUAGUCCGUUAUCAACUUGAAAAAGUGGCACCGAGUCGGUGCUUUU
modifications: sugars from the 5' end m3 r93 m3 r1, linkages s3 o93 s3 (s phosphorothioate, o phosphodiester), T or U not given here
B16: G-845: guide RNA SEQ ID NO: 5508 (nucleic acid)
guide: UUUGAAGUAUGCCUCAAGGUGUUUUAGAGCUAGAAAUAGCAAGUUAAAAUAAGGCUAGUCCGUUAUCAACUUGAAAAAGUGGCACCGAGUCGGUGCUUUU
modifications: sugars from the 5' end m3 r93 m3 r1, linkages s3 o93 s3 (s phosphorothioate, o phosphodiester), T or U not given here
B17: G-772: guide RNA SEQ ID NO: 5501 (nucleic acid)
guide: UGGCGAUUGGUGGAGGCAGGGUUUUAGAGCUAGAAAUAGCAAGUUAAAAUAAGGCUAGUCCGUUAUCAACUUGAAAAAGUGGCACCGAGUCGGUGCUUUU
modifications: sugars from the 5' end m3 r93 m3 r1, linkages s3 o93 s3 (s phosphorothioate, o phosphodiester), T or U not given here
B18: G-474: guide RNA SEQ ID NO: 5509 (nucleic acid)
guide: GAUUAAAGGUCUUUGUACUAGUUUUAGAGCUAGAAAUAGCAAGUUAAAAUAAGGCUAGUCCGUUAUCAACUUGAAAAAGUGGCACCGAGUCGGUGCUUUU
modifications: sugars from the 5' end m3 r93 m3 r1, linkages s3 o93 s3 (s phosphorothioate, o phosphodiester), T or U not given here

tested on: HBV genome in HEK293T cells transduced with a lentiviral vector; assay: Base editing efficiency in Hek293-lentiHBV system (PCR amplicons sequenced on MiSeq); format: cell-based, Hepatitis B virus; parameters: Editing Efficiency 2 (%): concentration or dose not given beside the values; conditions: average of 3, base editor Cas12b-ABE, plasmid transfection, four days

Molecule | Average Editing Efficiency (%)
B1 | 35.07
B2 | 0.02
B3 | 28.99
B4 | 5.18
B5 | 10.83
B6 | 27.74
B7 | 0.35
B8 | 17.47
B9 | 42.25
B10 | 5.51
B11 | 20.00

same assay, conditions: base editor ABE8.8-m

Molecule | % Editing average [%]
B12 | 64
B13 | 59

same assay, conditions: base editor Abe7.10

Molecule | % Editing average [%]
B14 | 77
B15 | 51
B16 | 70
B17 | 66

same assay, conditions: base editor VRQR-ABE

Molecule | % Editing average [%]
B18 | 74

same assay, conditions: replicate 1, base editor Cas12b-ABE, plasmid transfection, four days

Molecule | Editing Efficiency 1 (%)
B1 | 26.42
B2 | 0.02
B3 | 29.48
B4 | 7.97
B5 | 13.02
B6 | 16.12
B7 | 0.31
B8 | 29.50
B9 | 50.16
B10 | 8.22
B11 | 14.70

same assay, conditions: replicate 2, base editor Cas12b-ABE, plasmid transfection, four days

Molecule | Editing Efficiency 2 (%)
B1 | 34.50
B2 | 0.02
B3 | 23.94
B4 | 4.21
B5 | 4.44
B6 | 30.06
B7 | 0.04
B8 | 11.78
B9 | 37.40
B10 | 3.91
B11 | 26.37

same assay, conditions: replicate 3, base editor Cas12b-ABE, plasmid transfection, four days

Molecule | Editing Efficiency 3 (%)
B1 | 44.29
B2 | 0.01
B3 | 33.54
B4 | 3.35
B5 | 15.03
B6 | 37.02
B7 | 0.70
B8 | 11.15
B9 | 39.21
B10 | 4.39
B11 | 18.93
